Measured values from the supplement of paper PMC10724198.
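Also: PSI is a weighted mean of each variant's read distribution over the sorted stability bins, computed only for variants having over 10 reads in total.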

What follows are sequences tested on Saccharomyces cerevisiae (assay: protein stability index of tFT-peptide fusion in deletion strain of DAS1 (PSI (0-1 scale)); higher = more stable (slower turnover)).
Protocol: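 MPS profiling in S. cerevisiae of two library types built from selected 12-aa C-degron peptides (IN1, IN2, LN1, LN3, VN2, R1-R5, W1-W3, Atg1 and Rpa12 C-termini): saturation mutagenesis libraries and C-terminal +1 capping libraries (13 aa). Each peptide is fused to the C-terminus of a sfGFP-mCherry timer, after a GGGS linker. Cells are FACS-sorted into 8 mCherry/sfGFP bins and sequenced. PSI runs from 0 (unstable) to 1 (stable), measured once in wild type and in the das1Δ or doa10Δ background.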
LKILRQKMWHQN gave a protein stability index of 0.657. Work on LKILRQTMNHQN yielded a protein stability index of 0.677. LKILRVKMNHQN showed a protein stability index of 0.646. For LKILTQKMNHQN, the protein stability index was 0.688. LKILWQKMNHQN showed a protein stability index of 0.67. With LKIWRQKMNHQN the protein stability index was 0.687. Work on LKIYRQKMNHQN yielded a protein stability index of 0.689. LRGAVGGWRLVG showed a protein stability index of 0.681. In the case of LSILRQKMNHQN, the protein stability index is reported as 0.675. With LSLAASFWRVVG the protein stability index was 0.664. Work on LVKYLSCVACIN yielded a protein stability index of 0.365. LVMYLSCVACIN was tested, and the protein stability index was 0.135. LVSYLSCVACIN showed a protein stability index of 0.252. Work on LVVVLSCVACIN yielded a protein stability index of 0.0377. For LVVWLSCVACIN, the protein stability index was 0.0381. LVVYCSCVACIN gave a protein stability index of 0.0283. LVVYLQCVACIN gave a protein stability index of 0.0353. LVVYLSAVACIN was tested, and the protein stability index was 0.0365. LVVYLSCSACIN gave a protein stability index of 0.0361. Work on LVVYLSCVACDN yielded a protein stability index of 0.272. In the case of LVVYLSCVACIH, the protein stability index is reported as 0.0535. LVVYLSCVACIT gave a protein stability index of 0.0345. In the case of LVVYLSCVACKN, the protein stability index is reported as 0.0769. In the case of LVVYLSCVADIN, the protein stability index is reported as 0.168. LVVYLSCVAGIN gave a protein stability index of 0.154. LVVYLSCVANIN showed a protein stability index of 0.0788. LVVYLSCVAQIN gave a protein stability index of 0.0252. LVVYLSCVKCIN gave a protein stability index of 0.319. In the case of LVVYLSEVACIN, the protein stability index is reported as 0.286. For LVVYLTCVACIN, the protein stability index was 0.0371. LVVYLYCVACIN gave a protein stability index of 0.0269. For MDKRNHLIKLLN, the protein stability index was 0.702. With MKILRQKMNHQN the protein stability index was 0.66. MRGAVGGWRLVG was tested, and the protein stability index was 0.653. With MRWRVGLWRGAS the protein stability index was 0.727. Work on PCKRNHLIKLLN yielded a protein stability index of 0.614. In the case of PCLAASFWRVVG, the protein stability index is reported as 0.68. PDKCNHLIKLLN was tested, and the protein stability index was 0.586. PDKQNHLIKLLN was tested, and the protein stability index was 0.593. Work on PDKRCHLIKLLN yielded a protein stability index of 0.596. PDKRNHAIKLLN gave a protein stability index of 0.603. Sequence PDKRNHDIKLLN has a protein stability index of 0.606. Work on PDKRNHLIKFLN yielded a protein stability index of 0.583. PDKRNHLIKLKN gave a protein stability index of 0.599. PDKRNHLIKLLM gave a protein stability index of 0.586. Sequence PDKRNHLIKLLV has a protein stability index of 0.618. Work on PDKRNHLIKLLY yielded a protein stability index of 0.587. PDKRNHLIKLYN was tested, and the protein stability index was 0.599. PDKSNHLIKLLN showed a protein stability index of 0.652. PIKRNHLIKLLN was tested, and the protein stability index was 0.622. PNLAASFWRVVG showed a protein stability index of 0.694. Sequence PQLAASFWRVVG has a protein stability index of 0.7. PRGAVGGWRLVG was tested, and the protein stability index was 0.671. PRLAASFWRVVG gave a protein stability index of 0.691. Work on PSIAASFWRVVG yielded a protein stability index of 0.695. PSLAACFWRVVG showed a protein stability index of 0.675. PSLAAHFWRVVG was tested, and the protein stability index was 0.694. For PSLAAIFWRVVG, the protein stability index was 0.645. Work on PSLAASFPRVVG yielded a protein stability index of 0.66. Sequence PSLAASFSRVVG has a protein stability index of 0.631. With PSLAASFWPVVG the protein stability index was 0.706. Work on PSLAASFWRVAG yielded a protein stability index of 0.671. PSLAASFWRVVC showed a protein stability index of 0.679. PSLAASFWRVVD showed a protein stability index of 0.698. Work on PSLAASFWRVVGC yielded a protein stability index of 0.685. For PSLAASFWRVVGY, the protein stability index was 0.684. PSLAASFWRVVS showed a protein stability index of 0.641. PSLAASFWRVVV showed a protein stability index of 0.687. PSLAASFWVVVG was tested, and the protein stability index was 0.554. For PSLAASWWRVVG, the protein stability index was 0.693. PSLAAVFWRVVG gave a protein stability index of 0.665. In the case of PSLAKSFWRVVG, the protein stability index is reported as 0.702. PSLAVSFWRVVG gave a protein stability index of 0.673. PSLGASFWRVVG showed a protein stability index of 0.696. Work on PSLSASFWRVVG yielded a protein stability index of 0.692. PSVAASFWRVVG showed a protein stability index of 0.679. PTSCGYKFRTNN gave a protein stability index of 0.677. Sequence PVKRNHLIKLLN has a protein stability index of 0.608. Work on PWKRNHLIKLLN yielded a protein stability index of 0.606. With QKILRQKMNHQN the protein stability index was 0.678. Sequence QTSCGYKFRTNN has a protein stability index of 0.673. RFIQPLPVQFLN gave a protein stability index of 0.54. With RLCQPLPVQFLN the protein stability index was 0.612. Sequence RLIQGLPVQFLN has a protein stability index of 0.651. Work on RLIQMLPVQFLN yielded a protein stability index of 0.626. Work on RLIQPCPVQFLN yielded a protein stability index of 0.612. Work on RLIQPDPVQFLN yielded a protein stability index of 0.565. For RLIQPLKVQFLN, the protein stability index was 0.805. RLIQPLPIQFLN was tested, and the protein stability index was 0.593. RLIQPLPKQFLN gave a protein stability index of 0.559. For RLIQPLPMQFLN, the protein stability index was 0.636. RLIQPLPVQFEN gave a protein stability index of 0.603. RLIQPLPVQFHN was tested, and the protein stability index was 0.616. RLIQPLPVQFLA gave a protein stability index of 0.589. Work on RLIQPLPVQFLF yielded a protein stability index of 0.779. Sequence RLIQPLPVQFLL has a protein stability index of 0.586. Work on RLIQPLPVQFTN yielded a protein stability index of 0.723. In the case of RLIQPLPVQFYN, the protein stability index is reported as 0.783. In the case of RLIQPLPVQILN, the protein stability index is reported as 0.774. With RLIQPLPVQSLN the protein stability index was 0.612. Work on RLIQPLPVTFLN yielded a protein stability index of 0.7. Work on RLIQPLYVQFLN yielded a protein stability index of 0.629. RLIQPYPVQFLN showed a protein stability index of 0.578. SKHKKGQKQKIN was tested, and the protein stability index was 0.625. Work on STSCGYKFRTNN yielded a protein stability index of 0.669. VNGAVGGWRLVG was tested, and the protein stability index was 0.68. With VRGAVGGSRLVG the protein stability index was 0.669. With VRGAVGGWILVG the protein stability index was 0.638. In the case of VRGAVGGWKLVG, the protein stability index is reported as 0.679. In the case of VRGAVGGWRLGG, the protein stability index is reported as 0.628. With VRGAVGGWRLSG the protein stability index was 0.67. In the case of VRGAVGGWRLVGI, the protein stability index is reported as 0.679. With VRGAVGGWRLVL the protein stability index was 0.68. Work on VRGAVGLWRLVG yielded a protein stability index of 0.675. VRGAVVGWRLVG was tested, and the protein stability index was 0.66. VRGAYGGWRLVG showed a protein stability index of 0.664. For VTSCGYKFRTNN, the protein stability index was 0.674.
